Laboratory results taken from publication PMC2661964, “Mammalian Kinesin-3 Motors Are Dimeric In Vivo and Move by Processive Motility upon Release of Autoinhibition” (PLoS Biology, 2009).

B1: KIF1A-3xmCit (natural protein, rat, UniProt F1M4A4 1-1707, looked up)
chain: MAGASVKVAVRVRPFNSREMSRDSKCIIQMSGSTTTIVNPKQPKETPKSFSFDYSYWSHTSPEDINYASQKQVYRDIGEEMLQHAFEGYNVCIFAYGQTGAGKSYTMMGKQEKDQQGIIPQLCEDLFSRINDTTNDNMSYSVEVSYMEIYCERVRDLLNPKNKGNLRVREHPLLGPYVEDLSKLAVTSYNDIQDLMDSGNKARTVAATNMNETSSRSHAVFNIIFTQKRHDAETNITTEKVSKISLVDLAGSERADSTGAKGTRLKEGANINKSLTTLGKVISALAEMDSGPNKNKKKKKTDFIPYRDSVLTWLLRENLGGNSRTAMVAALSPADINYDETLSTLRYADRAKQIRCNAIINEDPNNKLIRELKDEVTRLRDLLYAQGLGDITDTNTVPGGPKLTNALVGMSPSSSLSALSSRAASVSSLHERILFAPGSEEAIERLKETEKIIAELNETWEEKLRRTEAIRMEREALLAEMGVAMREDGGTLGVFSPKKTPHLVNLNEDPLMSECLLYYIKDGVTRVGREDAERRQDIVLSGHFIKEEHCIFRSDSRGGGEAVVTLEPCEGADTYVNGKKVTEPSILRSGNRIIMGKSHVFRFNHPEQARQERERTPCAETPAEPVDWAFAQRELLEKQGIDMKQEMEQRLQELEDQYRREREEATYLLEQQRLDYESKLEALQKQMDSRYYPEVNEEEEEPEDEVQWTERECELALWAFRKWKWYQFTSLRDLLWGNAIFLKEANAISVELKKKVQFQFVLLTDTLYSPLPPDLLPPEAAKDRETRPFPRTIVAVEVQDQKNGATHYWTLEKLRQRLDLMREMYDRAAEVPSSVVEDCDNVVTGGDPFYDRFPWFRLVGRAFVYLSNLLYPVPLVHRVAIVSEKGEVKGFLRVAVQAISADEEAPDYGSGVRQSGTAKISFDDQHFEKFQSESCPVVGMSRSGTSQEELRIVEGQGQGADAGPSADEVNNNTCSAVPPEGLLDSPEKAALDGPLDTALDHLRLGSTFTFRVTVLQASSISAEYADIFCQFNFIHRHDEAFSTEPLKNTGRGPPLGFYHVQNIAVEVTKSFIEYIKSQPIVFEVFGHYQQHPFPPLCKDVLSPLRPSRRHFPRVMPLSKPVPATKLSTMTRPSPGPCHCKYDLLVYFEICELEANGDYIPAVVDHRGGMPCMGTFLLHQGIQRRITVTLLHETGSHIRWKEVRELVVGRIRNTPETDEALIDPNILSLNILSSGYVHPAQDDRQFLDSDIPRTFYQFEAAWDSSMHNSLLLNRVTPYREKIYMTLSAYIEMENCTQPAVITKDFCMVFYSRDAKLPASRSIRNLFGSGSLRATEGNRVTGVYELSLCHVADAGSPGMQRRRRRVLDTSVAYVRGEENLAGWRPRSDSLILDHQWELEKLSLLQEVEKTRHYLLLREKLETTQRPVPEVLSPASSEDSESRSSSGASSPLSAEGQPSPLEVPNERQRELAVKCLRLLMHTFNREYTHSHVCISASESKLSEMSVTLMRDPSMSPLGAATLTPSSTCPSLIEGRYGATDVRTPQPCSRPASPEPELLPELDSKKTPSPVRATETEKEPQRLLVPDIQEIRVSPIVSKKGYLHFLEPHTAGWAKRFVVVRRPYAYMYNSDKDTVERFVLNLSTAQVEYSEDQQAMLKTPNTFAVCTEHRGILLQANSDKDMHDWLYAFNPLLAGTIRSKLSRRRSAQMRV
notes: KIF1A (Kinesin-3 motor), rat, full length; Vector 3xmCit-N1; also called FL; 3xmCit-tagged FL KIF1A; source: COS cells, transfected, in lysate
B2: mCit-KIF1A (natural protein, rat, UniProt F1M4A4 1-1707, looked up)
chain: B1 chain
notes: KIF1A (Kinesin-3 motor), rat, full length; also called mCit-tagged KIF1A; FL KIF1A; source: COS cells, transfected; in lysate and in live cells; not shown: mCit (monomeric citrine), N-terminal, kept
B3: Myc-KIF1A (natural protein, rat, UniProt F1M4A4 1-1707, looked up)
chain: B1 chain
notes: KIF1A (Kinesin-3 motor), rat, full length; Cloned into pRK5-Myc; also called Myc-tagged KIF1A; FL KIF1A; source: COS cells, transfected, in lysate
B4: KIF1A(1–726)-3xmCit (domain or fragment, rat, UniProt F1M4A4 1-726, looked up)
chain: MAGASVKVAVRVRPFNSREMSRDSKCIIQMSGSTTTIVNPKQPKETPKSFSFDYSYWSHTSPEDINYASQKQVYRDIGEEMLQHAFEGYNVCIFAYGQTGAGKSYTMMGKQEKDQQGIIPQLCEDLFSRINDTTNDNMSYSVEVSYMEIYCERVRDLLNPKNKGNLRVREHPLLGPYVEDLSKLAVTSYNDIQDLMDSGNKARTVAATNMNETSSRSHAVFNIIFTQKRHDAETNITTEKVSKISLVDLAGSERADSTGAKGTRLKEGANINKSLTTLGKVISALAEMDSGPNKNKKKKKTDFIPYRDSVLTWLLRENLGGNSRTAMVAALSPADINYDETLSTLRYADRAKQIRCNAIINEDPNNKLIRELKDEVTRLRDLLYAQGLGDITDTNTVPGGPKLTNALVGMSPSSSLSALSSRAASVSSLHERILFAPGSEEAIERLKETEKIIAELNETWEEKLRRTEAIRMEREALLAEMGVAMREDGGTLGVFSPKKTPHLVNLNEDPLMSECLLYYIKDGVTRVGREDAERRQDIVLSGHFIKEEHCIFRSDSRGGGEAVVTLEPCEGADTYVNGKKVTEPSILRSGNRIIMGKSHVFRFNHPEQARQERERTPCAETPAEPVDWAFAQRELLEKQGIDMKQEMEQRLQELEDQYRREREEATYLLEQQRLDYESKLEALQKQMDSRYYPEVNEEEEEPEDEVQWTERECELALWAFRKWKWY
notes: source: COS cells, transfected, in lysate
B5: KIF1A(1–726)-mCit (domain or fragment, rat, UniProt F1M4A4 1-726, looked up)
chain: B4 chain
notes: source: COS cells, transfected, in lysate; not shown: mCit (monomeric citrine), C-terminal, kept
B6: KIF1A(1–393)-3xmCit (domain or fragment, rat, UniProt F1M4A4 1-393, looked up)
chain: MAGASVKVAVRVRPFNSREMSRDSKCIIQMSGSTTTIVNPKQPKETPKSFSFDYSYWSHTSPEDINYASQKQVYRDIGEEMLQHAFEGYNVCIFAYGQTGAGKSYTMMGKQEKDQQGIIPQLCEDLFSRINDTTNDNMSYSVEVSYMEIYCERVRDLLNPKNKGNLRVREHPLLGPYVEDLSKLAVTSYNDIQDLMDSGNKARTVAATNMNETSSRSHAVFNIIFTQKRHDAETNITTEKVSKISLVDLAGSERADSTGAKGTRLKEGANINKSLTTLGKVISALAEMDSGPNKNKKKKKTDFIPYRDSVLTWLLRENLGGNSRTAMVAALSPADINYDETLSTLRYADRAKQIRCNAIINEDPNNKLIRELKDEVTRLRDLLYAQGLGDITD
notes: as for B4
B7: KIF1A(1–393)-mCit (domain or fragment, rat, UniProt F1M4A4 1-393, looked up)
chain: B6 chain
notes: full NC and several residues of the hinge; Plasmid was a gift from Gary Banker; source: COS cells, transfected, in lysate; not shown: mCit (monomeric citrine), C-terminal, kept

What was measured:
[1] = target: the molecule itself; test: stepwise photobleaching of single molecules (TIRF microscopy); lysates of COS cells expressing 3xmCit-tagged constructs, in flow chambers with Cy5-microtubules, with AMPPNP; number of bleaching steps of 160–200 spots for each construct
[2] = target: the molecule itself; test: cross-linking; lysates of transfected COS cells in borate buffer (50 mM NaBorate, 100 mM potassium acetate, 2 mM MgCl2, 1 mM EGTA, 1% Triton X-100, pH 8.57), 20 mM DMP for 30 min or untreated; SDS-PAGE, immunoblot

| Protein | stoichiometry N [1] | stoichiometry N [2] |
| --- | --- | --- |
| B1 | 2 | – |
| B2 | – | ~2 |
| B3 | – | ~2 |
| B4 | 2 | – |
| B5 | – | 2 |
| B6 | 2 | – |
| B7 | – | 2 |
